The assay concerns the target T1, biotinylated recombinant human BCMA (human, UniProt Q02223 1-54, biotinylated).
T1 construct: Bought reagent; also called biotinylated BCMA; Recombinant biotinylated human BCMA (Acro Biosystems Cat:# BC7-H82F0)
T1 sequence (looked up): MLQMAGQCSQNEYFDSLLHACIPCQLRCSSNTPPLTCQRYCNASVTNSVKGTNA
The assay is described as follows: flow cytometry, biotinylated BCMA detected with streptavidin-APC on CAR T cells. (In general: In flow cytometry, cells or beads pass a laser one at a time.)

B1: Anti-BCMA CAR of CTX-160 (CD28 co-stimulatory domain) (other)
chain: EVQLVESGGGLVQPGGSLKLSCAASGIDFSRYWMSWVRQAPGKGLEWIGEINPDSSTINYADSVKGRFTISRDNAKNTLYLQMNLSRAEDTALYYCASLYYDYGDAMDYWGQGTLVTVSSGGGGSGGGGSGGGGSDIQMTQSPSSLSASVGDRVTITCRASQSVDSNVAWYQQKPEKAPKSLIFSASLRFSGVPSRFSGSGSGTDFTLTISSLQPEDFATYYCQQYNSYPLTFGAGTKLEIKSAAAFVPVFLPAKPTTTPAPRPPTPAPTIASQPLSLRPEACRPAAGGAVHTRGLDFACDIYIWAPLAGTCGVLLLSLVITLYCNHRNRSKRSRLLHSDYMNMTPRRPGPTRKHYQPYAPPRDFAAYRSRVKFSRSADAPAYQQGQNQLYNELNLGRREEYDVLDKRRGRDPEMGGKPRRKNPQEGLYNELQKDKMAEAYSEIGMKGERRRGKGHDGLYQGLSTATKDTYDALHMQALPPR
notes: Chimeric antigen receptor on edited primary human T cells; also called anti-BCMA (CD28) CAR
In the case of B1, the “percent of cells that bound biotinylated BCMA” value worked out at 60%.
